Measured values reported in patent US20200317768A1 (published 2020).

T1: human FcγRIIaR extracellular domain, His-tagged (human, UniProt P12318 34-217)
T1 construct: also called human FcgRIIaR; FcγRIIa (type R); not shown: His-tag added to the C-terminus
T1 chain: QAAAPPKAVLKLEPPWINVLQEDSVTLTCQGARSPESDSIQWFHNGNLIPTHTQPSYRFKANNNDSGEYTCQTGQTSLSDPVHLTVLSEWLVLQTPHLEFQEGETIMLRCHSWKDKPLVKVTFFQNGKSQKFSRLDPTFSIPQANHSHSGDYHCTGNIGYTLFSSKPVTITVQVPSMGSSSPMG

T2: cynomolgus monkey FcγRIIb extracellular domain, His-tagged (cynomolgus monkey)
T2 construct: also called cyno FcgRIIb; cynoFcγRIIb; not shown: His-tag added to the C-terminus
T2 chain: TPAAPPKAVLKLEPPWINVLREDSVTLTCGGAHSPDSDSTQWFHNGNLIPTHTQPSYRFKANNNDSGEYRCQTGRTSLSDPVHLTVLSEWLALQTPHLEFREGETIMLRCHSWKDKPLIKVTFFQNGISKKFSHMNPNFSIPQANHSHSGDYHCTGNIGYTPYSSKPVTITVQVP

T3: cynomolgus monkey FcγRIIa3 extracellular domain, His-tagged (cynomolgus monkey)
T3 construct: also called cyno FcgRIIa3; cynoFcγRIIa3; not shown: His-tag added to the C-terminus
T3 chain: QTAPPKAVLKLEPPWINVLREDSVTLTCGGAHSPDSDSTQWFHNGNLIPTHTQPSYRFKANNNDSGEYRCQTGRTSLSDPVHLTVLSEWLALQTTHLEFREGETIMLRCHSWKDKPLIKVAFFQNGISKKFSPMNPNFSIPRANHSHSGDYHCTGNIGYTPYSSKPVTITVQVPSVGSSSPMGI

T4: human FcγRIIb extracellular domain, His-tagged (human, UniProt P31994 43-217)
T4 construct: also called human FcgRIIb; not shown: His-tag added to the C-terminus
T4 sequence: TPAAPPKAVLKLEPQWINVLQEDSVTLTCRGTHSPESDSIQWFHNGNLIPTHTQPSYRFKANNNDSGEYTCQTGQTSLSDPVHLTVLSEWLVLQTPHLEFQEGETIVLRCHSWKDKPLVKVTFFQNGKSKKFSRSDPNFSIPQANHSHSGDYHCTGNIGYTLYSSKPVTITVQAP

T5: cynomolgus monkey FcγRIIa1 extracellular domain, His-tagged (cynomolgus monkey)
T5 construct: also called cyno FcgRIIa1; cynoFcγRIIa1; not shown: His-tag added to the C-terminus
T5 chain: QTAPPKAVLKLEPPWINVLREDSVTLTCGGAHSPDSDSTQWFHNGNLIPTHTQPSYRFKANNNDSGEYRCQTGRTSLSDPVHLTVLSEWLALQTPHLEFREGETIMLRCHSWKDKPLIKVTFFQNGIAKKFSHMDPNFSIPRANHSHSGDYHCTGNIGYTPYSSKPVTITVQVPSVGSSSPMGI


Key:
Assay in all cases: SPR (BIACORE), antibody captured, FcγR as analyte, 25°C
[1] = biological target: T1, human FcγRIIaR extracellular domain, …
Description: (§1) The kinetic analysis of interactions between these antibodies and FcγR was carried out using BIACORE® T200 or BIACORE® 4000 (GE Healthcare). HBS-EP+ (GE Healthcare) was used as the running buffer, and the measurement temperature was set to 25° C. A chip produced by immobilizing Protein A. Protein A/G or mouse anti-human IgG kappa light chain (BD Biosciences) onto a Series S Sensor Chip CM4 or CM5 (GE Healthcare) by the amine-coupling method was used. […] After the measurement, the antibody captured on the chip was washed off by allowing reaction with 10 mM glycine-HCl, pH1.5 and 25 mM NaOH so that the chip was regenerated and used repeatedly. The sensorgrams obtained as measurement results were analyzed by the 1:1 Langmuir binding model using the BIACORE® Evaluation Software to calculate the binding rate constant ka (L/mol/s) and dissociation rate constant kd (l/s), and the dissociation constant KD (mol/L) was calculated from these values. […] Regarding such interactions, KD values were calculated using the following 1:1 binding model described in BIACORE® T100 Software Handbook BR1006-48 Edition AE.
(§2) The behavior of interacting molecules according to the 1:1 binding model on BIACORE® can be described by Equation 1: Req=C·R max/(KD+C)+RI, wherein, Req is a plot of steady-state binding levels to analyte concentration. C is concentration, RI is bulk refractive index contribution in the sample, and Rmax is analyte binding capacity of the surface. When this equation is rearranged, KD can be expressed as Equation 2: KD=C·Rmax/(Req−RI)−C. KD can be calculated by substituting the values of Rmax, RI, and C into Equation 1 or Equation 2. From the current measurement conditions, RI=0, C=2 μmol/L can be used.

[2] = biological target: T2, cynomolgus monkey FcγRIIb extracellular …
Description: as §1, §2

[3] = biological target: T3, cynomolgus monkey FcγRIIa3 …
Description: as §1, §2

[4] = biological target: T6, cynomolgus monkey FcγRIIIaS extracellular domain, His-tagged (cynomolgus monkey, UniProt A3RFZ7 21-206 (rhesus entry))
T6 construct: also called cyno FcgRIIIaS; cynoFcγRIIIaS; not shown: His-tag added to the C-terminus
Description: as §1, §2

[5] = biological target: T4, human FcγRIIb extracellular domain, …
Description: as §1, §2

[6] = biological target: T5, cynomolgus monkey FcγRIIa1 …
Description: as §1, §2

Kd [1]	Kd [2]	Kd [3]	Kd [4]	Kd [5]	Kd [6]	Binder
1100 nM	1800 nM	17000 nM	360 nM	4600 nM	3200 nM	MS1032LO06-SG1 (M103205H795-SG1/M103202L889-SK1) (antibody, human IgG1, kappa, Anti-latent myostatin antibody; Parent of the Fc variants; copies: 2 + 2) heavy: not shown light: DIVMTQSPATLSLSPGERATLSCTSSQSVYHANWLSWFQQKPGQPPKLLIYWASTLAYGVPSRFSGSGSGTDFTLTISSLQPEDAATYYCAGGYGGGRYAFGQGTKVEIKRTVAAPSVFIFPPSDEQLKSGTASVVCLLNNFYPREAKVQWKVDNALQSGNSQESVTEQDSKDSTYSLSSTLTLSKADYEKHKVYACEVTHQGLSSPVTKSFNRGEC
1100 nM	1500 nM	6500 nM	74 nM	5300 nM	3700 nM	M103205H795-MY261/M103202L889-SK1 (antibody, human IgG1, kappa, copies: 2 + 2) heavy: QVTLKESGPVLVKPTETLTLTCTVSGIDLSHDDISWVRQAPGKGLEWVGIISYAGSTYYASWAKGRLTISKDTSKNQVVLTMTNMDPVDTATYYCARGVPAYSHGGDLWGQGTLVTVSSASTKGPSVFPLAPSSKSTSGGTAALGCLVKDYFPEPVTVSWNSGALTSGVHTFPAVLQSSGLYSLSSVVTVPSSSLGTQTYICNVNHKPSNTKVDKKVEPKSCDKTHTCPPCPAPELLHGPSVFLFPPKPKDTLMISRTPEVTCVVVDVSDEDPEVKFNWYVDGVEVHNAKTKPREEQYNSTYRVVSVLTVLHQDWLNGKEYKCKVSNKALPKPIEKTISKAKGQPREPQVYTLPPSREEMTKNQVSLTCLVKGFYPSDIAVEWESNGQPENNYKTTPPVLDSDGSFFLYSKLTVDKSRWQQGNVFSCSVMHEALHNHYTQKSLSLSP light: DIVMTQSPATLSLSPGERATLSCTSSQSVYHANWLSWFQQKPGQPPKLLIYWASTLAYGVPSRFSGSGSGTDFTLTISSLQPEDAATYYCAGGYGGGRYAFGQGTKVEIKRTVAAPSVFIFPPSDEQLKSGTASVVCLLNNFYPREAKVQWKVDNALQSGNSQESVTEQDSKDSTYSLSSTLTLSKADYEKHKVYACEVTHQGLSSPVTKSFNRGEC
1900 nM	430 nM	3900 nM	5700 nM	1100 nM	1400 nM	M103205H795-MY201/M103202L889-SK1 (antibody, human IgG1, kappa, Fc variant G236N/H268D/A330K (EU numbering) of SG1; also called MS1032LO06-MY201; copies: 2 + 2) heavy: QVTLKESGPVLVKPTETLTLTCTVSGIDLSHDDISWVRQAPGKGLEWVGIISYAGSTYYASWAKGRLTISKDTSKNQVVLTMTNMDPVDTATYYCARGVPAYSHGGDLWGQGTLVTVSSASTKGPSVFPLAPSSKSTSGGTAALGCLVKDYFPEPVTVSWNSGALTSGVHTFPAVLQSSGLYSLSSVVTVPSSSLGTQTYICNVNHKPSNTKVDKKVEPKSCDKTHTCPPCPAPELLNGPSVFLFPPKPKDTLMISRTPEVTCVVVDVSDEDPEVKFNWYVDGVEVHNAKTKPREEQYNSTYRVVSVLTVLHQDWLNGKEYKCKVSNKALPKPIEKTISKAKGQPREPQVYTLPPSREEMTKNQVSLTCLVKGFYPSDIAVEWESNGQPENNYKTTPPVLDSDGSFFLYSKLTVDKSRWQQGNVFSCSVMHEALHNHYTQKSLSLSP light: DIVMTQSPATLSLSPGERATLSCTSSQSVYHANWLSWFQQKPGQPPKLLIYWASTLAYGVPSRFSGSGSGTDFTLTISSLQPEDAATYYCAGGYGGGRYAFGQGTKVEIKRTVAAPSVFIFPPSDEQLKSGTASVVCLLNNFYPREAKVQWKVDNALQSGNSQESVTEQDSKDSTYSLSSTLTLSKADYEKHKVYACEVTHQGLSSPVTKSFNRGEC
1800 nM	1600 nM	14000 nM	650 nM	6100 nM	4500 nM	M103205H795-MY260/M103202L889-SK1 (antibody, human IgG1, kappa, copies: 2 + 2) heavy: QVTLKESGPVLVKPTETLTLTCTVSGIDLSHDDISWVRQAPGKGLEWVGIISYAGSTYYASWAKGRLTISKDTSKNQVVLTMTNMDPVDTATYYCARGVPAYSHGGDLWGQGTLVTVSSASTKGPSVFPLAPSSKSTSGGTAALGCLVKDYFPEPVTVSWNSGALTSGVHTFPAVLQSSGLYSLSSVVTVPSSSLGTQTYICNVNHKPSNTKVDKKVEPKSCDKTHTCPPCPAPELLMGPSVFLFPPKPKDTLMISRTPEVTCVVVDVSDEDPEVKFNWYVDGVEVHNAKTKPREEQYNSTYRVVSVLTVLHQDWLNGKEYKCKVSNKALPKPIEKTISKAKGQPREPQVYTLPPSREEMTKNQVSLTCLVKGFYPSDIAVEWESNGQPENNYKTTPPVLDSDGSFFLYSKLTVDKSRWQQGNVFSCSVMHEALHNHYTQKSLSLSP light: DIVMTQSPATLSLSPGERATLSCTSSQSVYHANWLSWFQQKPGQPPKLLIYWASTLAYGVPSRFSGSGSGTDFTLTISSLQPEDAATYYCAGGYGGGRYAFGQGTKVEIKRTVAAPSVFIFPPSDEQLKSGTASVVCLLNNFYPREAKVQWKVDNALQSGNSQESVTEQDSKDSTYSLSSTLTLSKADYEKHKVYACEVTHQGLSSPVTKSFNRGEC
710 nM	560 nM	8000 nM	2800 nM	6000 nM	1900 nM	M103205H795-MY262/M103202L889-SK1 (antibody, human IgG1, kappa, copies: 2 + 2) heavy: QVTLKESGPVLVKPTETLTLTCTVSGIDLSHDDISWVRQAPGKGLEWVGIISYAGSTYYASWAKGRLTISKDTSKNQVVLTMTNMDPVDTATYYCARGVPAYSHGGDLWGQGTLVTVSSASTKGPSVFPLAPSSKSTSGGTAALGCLVKDYFPEPVTVSWNSGALTSGVHTFPAVLQSSGLYSLSSVVTVPSSSLGTQTYICNVNHKPSNTKVDKKVEPKSCDKTHTCPPCPAPELLVGPSVFLFPPKPKDTLMISRTPEVTCVVVDVSDEDPEVKFNWYVDGVEVHNAKTKPREEQYNSTYRVVSVLTVLHQDWLNGKEYKCKVSNKALPKPIEKTISKAKGQPREPQVYTLPPSREEMTKNQVSLTCLVKGFYPSDIAVEWESNGQPENNYKTTPPVLDSDGSFFLYSKLTVDKSRWQQGNVFSCSVMHEALHNHYTQKSLSLSP light: DIVMTQSPATLSLSPGERATLSCTSSQSVYHANWLSWFQQKPGQPPKLLIYWASTLAYGVPSRFSGSGSGTDFTLTISSLQPEDAATYYCAGGYGGGRYAFGQGTKVEIKRTVAAPSVFIFPPSDEQLKSGTASVVCLLNNFYPREAKVQWKVDNALQSGNSQESVTEQDSKDSTYSLSSTLTLSKADYEKHKVYACEVTHQGLSSPVTKSFNRGEC
